Source: the supplement of paper PMC6755084

B1: F1*; the commonest letter at each place (parent)
chain: GAGACCGCAACTGAAAAGTTGTTATCACTTGTCGTAAGACACTTTGGATGGGTTGAAGTTCTGCACGTAGAAGCAAAAGGC

Variants of: B1
Assay: fraction ligated after 30 min (ligated reads / total reads); higher = more ligase activity
Settings: with F1*sub RNA substrate (template-directed ligation), 42 °C
How it was run: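 The ligase ribozyme variants were produced by PCR amplification of oligo-pool templates, T7 transcription and purification on gel. Their ligated and unligated forms were gel-separated, then reverse transcribed with barcoded primers before MiSeq sequencing. Core bases were filtered at a quality of ≥20, and fraction ligated per variant was ligated reads over total reads.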
A27C A56C was tested, and the fraction ligated was 0.75.
A41G C42T was tested, and the fraction ligated was 0.83.
T30G A41T gave a fraction ligated of 0.82.
Variant C26A A48C has a fraction ligated of 0.366.
Work on G55A A57T yielded a fraction ligated of 0.801.
Work on A56G A57T yielded a fraction ligated of 0.383.
C28T T45C gave a fraction ligated of 0.284.
T53C showed a fraction ligated of 0.849.
G34C T45A gave a fraction ligated of 0.0783.
In the case of T44A T45C, the fraction ligated is reported as 0.8.
Work on C26G G34A yielded a fraction ligated of 0.357.
Variant T43C G46C has a fraction ligated of 0.791.
In the case of G55A A56C A57T, the fraction ligated is reported as 0.151.
G55A A56C A57G was tested, and the fraction ligated was 0.0754.
A36G A39G showed a fraction ligated of 0.862.
With C26G T44A the fraction ligated was 0.781.
A36C T44G was tested, and the fraction ligated was 0.827.
Variant T35G C42G has a fraction ligated of 0.857.
For A36G A41C, the fraction ligated was 0.795.
A36G A41T was tested, and the fraction ligated was 0.834.
A39G C42T was tested, and the fraction ligated was 0.843.
For T23G A37G, the fraction ligated was 0.867.
T23C T32G was tested, and the fraction ligated was 0.827.
With C28T C42A the fraction ligated was 0.805.
Work on C28T G47T yielded a fraction ligated of 0.3.
For T45G, the fraction ligated was 0.385.
A37C A48C gave a fraction ligated of 0.792.
A24T C42G gave a fraction ligated of 0.769.
In the case of T35C A37T, the fraction ligated is reported as 0.847.
T44C was tested, and the fraction ligated was 0.837.
In the case of A36G G38A, the fraction ligated is reported as 0.828.
With T29C T35G the fraction ligated was 0.831.
T25G T32A showed a fraction ligated of 0.324.
Variant T30A has a fraction ligated of 0.855.
A24T T45G showed a fraction ligated of 0.0472.
With A24T T45A the fraction ligated was 0.0698.
T44A G50C gave a fraction ligated of 0.442.
C42T T43A was tested, and the fraction ligated was 0.866.
T23A T49C was tested, and the fraction ligated was 0.731.
T25C T45G gave a fraction ligated of 0.0359.
For G46T G50A, the fraction ligated was 0.0502.
G46T G50C was tested, and the fraction ligated was 0.0286.
For C33T G50C, the fraction ligated was 0.324.
Work on C33T G50T yielded a fraction ligated of 0.804.
With T32A A36T the fraction ligated was 0.852.
For C28T A48C, the fraction ligated was 0.606.
C28T A48T was tested, and the fraction ligated was 0.709.
Work on C42G G55A yielded a fraction ligated of 0.853.
With C42G G55C the fraction ligated was 0.758.
Variant A36C A48C has a fraction ligated of 0.778.
Variant A27C A57C has a fraction ligated of 0.787.
For T23C A27C, the fraction ligated was 0.775.
Variant T35G A39G has a fraction ligated of 0.799.
T25C A41G showed a fraction ligated of 0.757.
Work on G52C yielded a fraction ligated of 0.726.
C26T G31T was tested, and the fraction ligated was 0.585.
In the case of A41G G50A, the fraction ligated is reported as 0.23.
In the case of A41G G50T, the fraction ligated is reported as 0.609.
A41G G50C showed a fraction ligated of 0.119.
With T25C A56T the fraction ligated was 0.107.
In the case of T23C A24G, the fraction ligated is reported as 0.794.
For C28T T44C, the fraction ligated was 0.783.
With T32A G34C the fraction ligated was 0.809.
For G38T A41G, the fraction ligated was 0.792.
In the case of T32C C40A, the fraction ligated is reported as 0.771.
A37T T45A gave a fraction ligated of 0.787.
C26G A39G gave a fraction ligated of 0.755.
With G38T G50T the fraction ligated was 0.723.
For G50T, the fraction ligated was 0.743.
A24T T32C gave a fraction ligated of 0.243.
A27C G34T was tested, and the fraction ligated was 0.815.
Work on C26G G38T yielded a fraction ligated of 0.0811.
G31A A37T showed a fraction ligated of 0.826.
G31A A37C showed a fraction ligated of 0.813.
Work on A24T T30C yielded a fraction ligated of 0.297.
In the case of G34T G55C, the fraction ligated is reported as 0.796.
T30G T32C A39G A41C gave a fraction ligated of 0.803.
A39G A41T showed a fraction ligated of 0.796.
For A39G A41G, the fraction ligated was 0.791.
A27C T32G was tested, and the fraction ligated was 0.78.
T35A A56C gave a fraction ligated of 0.802.
In the case of T23C T49A, the fraction ligated is reported as 0.792.
Variant C28G A41G has a fraction ligated of 0.744.
Variant C28G A41T has a fraction ligated of 0.801.
In the case of G47A A57T, the fraction ligated is reported as 0.77.
Work on G38C T44C yielded a fraction ligated of 0.819.
T25A G47A showed a fraction ligated of 0.462.
G55C A56C A57C was tested, and the fraction ligated was 0.0245.
T23A A57T gave a fraction ligated of 0.813.
T30A A36C gave a fraction ligated of 0.854.
T23C G31T showed a fraction ligated of 0.787.
For G31T T44A, the fraction ligated was 0.768.
A39C T45G was tested, and the fraction ligated was 0.138.
With G34C A57C the fraction ligated was 0.817.
T23A A39T was tested, and the fraction ligated was 0.794.
G31A T35A gave a fraction ligated of 0.823.
With T44G A48T the fraction ligated was 0.782.
In the case of C28A G38T, the fraction ligated is reported as 0.799.
G34T T45C showed a fraction ligated of 0.757.
In the case of G38T C42T, the fraction ligated is reported as 0.851.
Variant A39T A57T has a fraction ligated of 0.781.
For T30A G31T, the fraction ligated was 0.831.
With A27G G55A the fraction ligated was 0.801.
A39G A48T was tested, and the fraction ligated was 0.824.
For C33T C40G, the fraction ligated was 0.877.
T25A C40G showed a fraction ligated of 0.256.
Work on A36T A37T yielded a fraction ligated of 0.851.
A36T A37G showed a fraction ligated of 0.842.
G34A T45G showed a fraction ligated of 0.368.
A41G T44G showed a fraction ligated of 0.809.
Variant C33T A41G has a fraction ligated of 0.8.
T29G G38C gave a fraction ligated of 0.844.
For T35C T43G, the fraction ligated was 0.797.
A24G G46C gave a fraction ligated of 0.765.
G38T A48G gave a fraction ligated of 0.792.
T35A A39C showed a fraction ligated of 0.828.
With A24G C26G the fraction ligated was 0.268.
In the case of G46C A57C, the fraction ligated is reported as 0.778.
C26A A41C gave a fraction ligated of 0.21.
Variant A37G A48G has a fraction ligated of 0.795.
Work on A37G A48C yielded a fraction ligated of 0.763.
T23C A41T showed a fraction ligated of 0.808.
For A41G A56G, the fraction ligated was 0.764.
Work on G34A C40G yielded a fraction ligated of 0.833.
G34A C40T gave a fraction ligated of 0.81.
G47T G55A gave a fraction ligated of 0.0777.
T30A T45G was tested, and the fraction ligated was 0.211.
For T25G C26A, the fraction ligated was 0.261.
For C28A T43G, the fraction ligated was 0.812.
Variant G31T G50T has a fraction ligated of 0.103.
In the case of T44C T45A, the fraction ligated is reported as 0.768.
G38A T43A gave a fraction ligated of 0.835.
With G38A T43G the fraction ligated was 0.8.
Work on A24G T30C yielded a fraction ligated of 0.693.
Variant T32G C42G has a fraction ligated of 0.837.
A24T T44A was tested, and the fraction ligated was 0.772.
A57T gave a fraction ligated of 0.844.
In the case of T35G A37G, the fraction ligated is reported as 0.847.
A24C A41T gave a fraction ligated of 0.614.
With G34A T35C the fraction ligated was 0.835.
With G38A G50C the fraction ligated was 0.194.
Work on T32A T45A yielded a fraction ligated of 0.763.
In the case of T30G A36C, the fraction ligated is reported as 0.833.
Work on T30G G38T yielded a fraction ligated of 0.816.
For T30A A41C, the fraction ligated was 0.797.
For T25A G31T, the fraction ligated was 0.0308.
Work on A48G A56G yielded a fraction ligated of 0.399.
G31T C33T was tested, and the fraction ligated was 0.777.
In the case of T25C C28G, the fraction ligated is reported as 0.78.
A41T A57C was tested, and the fraction ligated was 0.787.
G47A T49C showed a fraction ligated of 0.773.
A24C T25A showed a fraction ligated of 0.793.
Work on A36G G55C yielded a fraction ligated of 0.773.
C28G T29G was tested, and the fraction ligated was 0.789.
G55T A56T A57C showed a fraction ligated of 0.00568.
A27C T45A showed a fraction ligated of 0.598.
T35G A36C was tested, and the fraction ligated was 0.824.
T29A T44G was tested, and the fraction ligated was 0.812.
With C26T T30A the fraction ligated was 0.832.
With T30C G31C T32C C33G G38C A39G C40G A41G the fraction ligated was 0.892.
T32G A36C was tested, and the fraction ligated was 0.798.
For C28A A37C, the fraction ligated was 0.779.
For T30G T32G C33G G38C A39C A41C, the fraction ligated was 0.862.
C42A A48C gave a fraction ligated of 0.761.
Variant C26A G34C has a fraction ligated of 0.805.
For T25A C28G, the fraction ligated was 0.431.
Work on T29A A57G yielded a fraction ligated of 0.818.
